We go through one compound from publication PMC4600075, “Rapid kit-based ^68Ga-labelling and PET imaging with THP-Tyr^3-octreotate: a preliminary comparison with DOTA-Tyr^3-octreotate” (EJNMMI Research, 2015).

Series [1] can be described thus: PET scanning, tumour to organ/background ratios. The settings on record: Balb/c nude, mouse, in vivo, iv, 1 ug, total radioactivity, PET images 1 h PI, ±SEM, n = 3. How it is done:
(§1) All animal experiments were performed with approval from the Peter MacCallum animal ethics committee. Six- to eight-week-old Balb/c nude mice (Animal Resources Centre, Western Australia) were implanted subcutaneously on the right flank with three million AR42J cells (sourced from ATCC). Once the tumours reached a volume >150 mm^3, the animals (n = 3) were injected intravenously with 23–28 MBq [^68Ga(THP-TATE)] (containing 1 μg of THP-TATE). For blocking studies, animals (n = 3) were coinjected with Tyr^3-octreotate peptide (400 μg). For [^68Ga(DOTATATE)], the animals (n = 3) were injected with 8 MBq of the tracer (containing 1 μg of DOTATATE). At 1 h, the animals were anaesthetised and imaged on a Philips MOSAIC small animal PET scanner. The images were reconstructed using a 3D RAMLA algorithm and tracer uptake determined as described previously. On completion of the scan, animals were euthanised and tissues harvested, weighed and radioactivity counted using a gamma counter (Biomedex). Quantitation of PET images was performed using in-house software (MARVn 3.31). Regions of interest were drawn around tissues of interest and uptake ratio calculated as the maximum pixel intensity in the tumour divided by the average uptake in a mediastinal background region, liver or kidneys, as appropriate.

Series [2] has as its system SSTR2-positive AR42J tumours. As to the kind of experiment: Ex vivo biodistribution. The settings on record: 1 h PI, i.v., ex vivo gamma counting; n = 3, ±SEM. How it is done:
as §1

Series [3] can be described thus: Ex vivo biodistribution. The settings on record: Balb/c nude, mouse, in vivo, iv, 1 ug, total radioactivity, 1 h PI, ex vivo gamma counting, n = 3, ±SEM. As to the method: as §1

For `C[C@@H](O)[C@H](NC(=O)[C@@H]1CSSC[C@H](NC(=O)[C@@H](Cc2ccccc2)NC(=O)CN2CCN(CC(=O)O)CCN(CC(=O)O)CCN(CC(=O)O)CC2)C(=O)N[C@@H](Cc2ccc(O)cc2)C(=O)N[C@H](Cc2c[nH]c3ccccc23)C(=O)N[C@@H](CCCCN)C(=O)N[C@@H]([C@@H](C)O)C(=O)N1)C(=O)O` [[^68Ga(DOTATATE)], metal not drawn], the tissue to tissue ratio at 1 h in series [1] (Tumour to kidney ratio, maximum tumour pixel intensity / average organ uptake) amounted to 5.7 ± 0.2; in series [1] (Tumour to liver ratio), 27.2 ± 3.9. In addition, the blood retention in series [2] is 0.3 ± 0.1 %ID g^−1. For the same compound, the values for the tissue uptake at 1 h in series [3] (AR42J tumour uptake) and in series [3] (kidney retention) were 14.4 ± 0.8 %ID/g and 5.6 ± 0.5 %ID/g, respectively.

What is called tissue uptake is the percentage of the injected dose found per gram of tissue.
